Measurements: publication PMC10433963

How the values were obtained:
[1] = target: ^H7-SUMOClpC1^FLAG (recombinant ClpC1) (M. smegmatis) (UniProt A0R574)
[2] = target: ^H7-SUMOClpC1^FLAG (recombinant ClpC1) (M. smegmatis) (UniProt A0R574); remark: listed apart in the source

Chain of ^H7-SUMOClpC1^FLAG (recombinant ClpC1) (M. smegmatis) (A0R574 whole entry): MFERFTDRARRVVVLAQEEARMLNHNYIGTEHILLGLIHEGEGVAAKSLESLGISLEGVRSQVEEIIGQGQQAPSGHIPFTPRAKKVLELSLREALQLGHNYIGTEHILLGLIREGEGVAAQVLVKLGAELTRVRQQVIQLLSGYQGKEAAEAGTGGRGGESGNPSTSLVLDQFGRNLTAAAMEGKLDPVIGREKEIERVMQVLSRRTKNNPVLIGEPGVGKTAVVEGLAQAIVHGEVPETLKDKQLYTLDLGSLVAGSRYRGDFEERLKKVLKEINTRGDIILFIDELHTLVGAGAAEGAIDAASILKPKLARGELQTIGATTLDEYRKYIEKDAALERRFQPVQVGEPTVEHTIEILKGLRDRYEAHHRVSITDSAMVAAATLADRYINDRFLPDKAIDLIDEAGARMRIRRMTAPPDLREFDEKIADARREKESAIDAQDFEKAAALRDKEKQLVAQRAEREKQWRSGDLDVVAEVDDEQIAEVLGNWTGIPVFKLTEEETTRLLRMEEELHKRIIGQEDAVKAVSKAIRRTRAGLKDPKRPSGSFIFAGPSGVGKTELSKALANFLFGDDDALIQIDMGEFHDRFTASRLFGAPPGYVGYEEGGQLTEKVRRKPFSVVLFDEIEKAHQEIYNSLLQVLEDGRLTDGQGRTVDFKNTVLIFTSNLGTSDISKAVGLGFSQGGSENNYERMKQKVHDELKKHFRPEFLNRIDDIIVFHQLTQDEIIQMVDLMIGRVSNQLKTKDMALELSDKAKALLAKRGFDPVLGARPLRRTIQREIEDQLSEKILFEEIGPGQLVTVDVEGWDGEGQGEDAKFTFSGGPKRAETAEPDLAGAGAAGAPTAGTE

Row | Substance | Km of degradation by ClpC1P1P2, loss of GFP fluorescence, Michaelis-Menten analysis [1] | Km of degradation by 1 uM ClpC1P1P2, loss of GFP fluorescence, Michaelis-Menten analysis [1] | further results
1 | GFP appended with the last 13 residues of MSMEI_3879 | 5.97 µM | – | –
2 | GFP preceded by the first 13 residues of MSMEI_3879 | 19.1 µM | – | –
3 | ^MSMEI_3879GFP (MSMEI_3879 fused to the N terminus of GFP) | – | 2.06 µM | –
4 | MSMEI_3879 (recombinant) (natural protein) | – | – | degradation of 10 uM MSMEI 3879 by 1 uM ClpC1 and 1 uM ClpP1P2 in vitro, SDS-PAGE densitometry, protein hydrolyzed within 40 min [2]: 75%
5 | GFP^MSMEI_3879 (MSMEI_3879 fused to the C terminus of GFP) | – | 18.8 µM | –
